In IntAct's records for PubMed 24464040:

Experiments:
[1] = target: kap3_rat Prkar2b (UniProt P12369)
[2] = target: kap3_rat Prkar2b (UniProt P12369); remark: listed apart in the source

Chain of kap3_rat Prkar2b (P12369 whole entry): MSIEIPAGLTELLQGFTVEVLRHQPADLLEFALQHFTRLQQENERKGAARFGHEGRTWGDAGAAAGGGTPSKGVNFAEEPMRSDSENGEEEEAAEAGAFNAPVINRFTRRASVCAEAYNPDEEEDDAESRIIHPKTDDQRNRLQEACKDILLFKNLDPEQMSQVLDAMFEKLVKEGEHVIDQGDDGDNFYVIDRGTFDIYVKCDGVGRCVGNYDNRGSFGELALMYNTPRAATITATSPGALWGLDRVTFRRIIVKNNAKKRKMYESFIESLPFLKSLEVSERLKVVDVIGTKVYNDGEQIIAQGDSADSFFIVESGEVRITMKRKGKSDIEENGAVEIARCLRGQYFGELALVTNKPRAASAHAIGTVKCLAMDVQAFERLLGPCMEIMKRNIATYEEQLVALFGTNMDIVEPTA

Row | effect of a mutation on the interaction [1] | effect of a mutation on the interaction [2] | Substance
1 | increasing interaction | – | Leucine-rich repeat serine/threonine-protein kinase 2 (Homo sapiens), Q5S007 G2385R
2 | – | decreasing interaction | Leucine-rich repeat serine/threonine-protein kinase 2 (Homo sapiens), Q5S007 R1441C
